Laboratory results: patent US20150232546A1 (THROMBOGENICS, published 2015)
Changes are numbered by the printed parent chain. Ends that are not written are not given here. * marks the point of attachment. Biotin = O=C1N[C@H]2[C@H](CS[C@H]2CCCCC(=O)*)N1

B1: Humanized 5H7 anti-PDGF-C antibody (antibody, V domains shown)
VH: EVQLLESGGGLVQPGGSLRLSCAASGFTFSSYGMSWVRQTPGKGLEWVATIGYGGSFTYYPDSMKGRFTISRDNAKNTLYLQMNSLRAEDTAVYYCARQAPLWDYFDYWGQGTLLTVSS
VL: DVVMTQSPLSLPVTLGQPASISCRSSQTIVHSDGTTYLEWYLQKPGQSPRLLIYKVSNRFSGVPDRFSGSGSGTDFTLKISRVEAEDVGVYYCFQGSHVPPTFGQGTKLEIK
notes: also called humanized mAb 5H7
B2: Humanized 16B1 anti-PDGF-C antibody (antibody, V domains shown)
VH: B1 VH with S31N, Y53S, F57Y, M64V, F106S
VL: B1 VL with S26N, T28S, D33N, T35D
notes: also called humanized mAb 16B1
B3: anti-PDGF-C antibody 5A2 (antibody, IgG2b, V domains shown)
VH: EVQLVESGGDLVKPGGSLKLSCAASGFTFSNYGMSWVRQTPDKRLEWVATIGSGGHYTYYPDSVKGRFTISRDSAKSTLYLQMSSLKSEDTAIYYCARQAPLWDCSDYWGQGTTLTVSS
VL: DVLMTQTPLSLPVSLGDQASISCRSNQSIVHSNGDTYLEWYLQKPGQSPKLLIYKVSNRFSGVPDRFSGSGSGTDFTLKISRVEAEDLGVYYCFQGSHVPPTFGGGTKLEIK
notes: Mouse monoclonal from hybridoma, IgG2b, kappa; also called mAb 5A2; hybridoma LMBP 9484CB
B4: anti-PDGF-C antibody 5H7 (antibody, IgG1, V domains shown)
VH: EVQLVESGGDLVKPGGSLKLSCAASGFTFSSYGMSWVRQTPDKRLEWVATIGYGGSFTYYPDSMKGRFTISRDNAKNTLFLQMSSLKSEDTAIYYCVRQAPLWDYFDYWGQGTTLTVSS
VL: B3 VL with N26S, S28T, N33D, D35T, P45A
notes: Mouse monoclonal from hybridoma, IgG1, kappa; also called mAb 5H7; hybridoma LMBP 9485CB
B5: anti-PDGF-C antibody 29H1 (antibody, IgG1, V domains shown)
VH: B3 VH with K87R, E89D
VL: B3 VL with K50N
notes: Mouse monoclonal from hybridoma, IgG1, kappa; also called mAb 29H1; hybridoma LMBP 9487CB
B6: anti-PDGF-C antibody 2D3 (antibody, IgG1, V domains shown)
VH: B3 VH with H56S, S77N, I93M, C105Y
VL: B3 VL with S28T, K50N
notes: Mouse monoclonal from hybridoma, IgG1, kappa; also called mAb 2D3; hybridoma LMBP 9483CB
B7: anti-PDGF-C antibody 16B1 (antibody, IgG1, V domains shown)
VH: B3 VH with H56S, S77N, I93M, C105Y
VL: B3 VL
notes: Mouse monoclonal from hybridoma, IgG1, kappa; VH same as 2D3, VL same as 5A2; also called mAb 16B1; hybridoma LMBP 9486CB
B8: recombinant human PDGFRα Fc chimera (6765-PR from R&D Systems) (Fc fusion, not shown: a dimerising Fc or GST)
chain: QLSLPSILPNENEKVVQLNSSFSLRCFGESEVSWQYPMSEEESSDVEIRNEENNSGLFVTVLEVSSASAAHTGLYTCYYNHTQTEENELEGRHIYIYVPDPDVAFVPLGMTDYLVIVEDDDSAIIPCRTTDPETPVTLHNSEGVVPASYDSRQGFNGTFTVGPYICEATVKGKKFQTIPFNVYALKATSELDLEMEALKTVYKSGETIVVTCAVFNNEVVDLQWTYPGEVKGKGITMLEEIKVPSIKLVYTLTVPEATVKDSGDYECAARQATREVKEMKKVTISVHEKGFIEIKPTFSQLEAVNLHEVKHFVVEVRAYPPPRISWLKNNLTLIENLTEITTDVEKIQEIRYRSKLKLIRAKEEDSGHYTIVAQNEDAVKSYTFELLTQVPSSILDLVDDHHGSTGGQTVRCTAEGTPLPDIEWMICKDIKKCNNETSWTILANNVSNIITEIHSRDRSTVEGRVTFAKVEETIAVRCLAKNLLGAENRELKLVAPTLRSEIEGRMD

The binders below were run against T1, Recombinant human PDGF-C from R&D Systems (1687-CC/CF; Val235-Gly345) (human, UniProt Q9NRA1 235-345) (assay: SPR as in Example 3).
T1 construct: Used in SPR (Cat. 1687-CC/CF) and the PathHunter assay; also called PDGF-CC
Procedure: (§1) The different antibodies were each separately coated to a CM5 chip at a density of 1680 RU using standard amine chemistry. Different concentrations (200, 175, 150, 125, 100, 75, 50, 25, 12.5, 6.25, 3.125 & 0 nM) of PDGF-C (R&D Systems, Cat. 1687-CC/CF) were injected over the coated antibody for 5 min, then buffer was flowed for 10 min to monitor the dissociation of the captured antigen. The surface was regeneration between each run with a single injection of glycine-HCl, pH 2.5. Affinities were obtained by analyzing the sensorgrams with the help of the BIAevaluation 4.1 software assuming a 1:1 interaction. The experiment was performed with a Biacore 3000 instrument.
The affinity of the above-listed exemplary humanized anti-PDGF-C antibodies for PDGF-C was analysed (as in Example 3) and the humanized antibodies were subsequently assessed in the in vitro bioassay described in Example 4. A technical problem with the (preparation of) humanized antibody 5H7 may explain why this antibody is apparently not inhibiting activation of PDGFR-α although it is still binding with high affinity to PDGF-C; this is under further investigation.

T1 sequence (Q9NRA1 235-345 limits assumed, form in doubt): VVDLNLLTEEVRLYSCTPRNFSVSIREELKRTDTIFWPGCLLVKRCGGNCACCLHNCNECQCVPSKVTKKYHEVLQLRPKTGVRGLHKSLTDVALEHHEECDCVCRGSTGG

Binder	Kd
B1	2.5 nM
B2	0.8 nM

These binders were tested against T1, Recombinant human PDGF-C from R&D … (assay: cell-based or functional assay).

Binder	% PDGFRα activation in the PathHunter PDGFRα assay at 5.56 µg/ml antibody with PDGF-CC at EC80 (no Ab with PDGF-CC = 100, no Ab without PDGF-CC = 24)	% PDGFRα activation in the PathHunter PDGFRα assay at 16.67 µg/ml antibody with PDGF-CC at EC80 (no Ab with PDGF-CC = 100, no Ab without PDGF-CC = 24)	% PDGFRα activation in the PathHunter PDGFRα assay at 50 µg/ml antibody with PDGF-CC at EC80 (no Ab with PDGF-CC = 100, no Ab without PDGF-CC = 24)
B3	20%	17%	18%
B4	24%	22%	22%
B5	22%	21%	22%
B6	32%	24%	23%
B7	24%	23%	20%

Molecular target: T1, Recombinant human PDGF-C from R&D …
Experiment: cell-based or functional assay
Remark: another data set of the same source

Binder	IC50 value (nM), PathHunter PDGFRα assay
B2	4.97 nM

Molecular target: T2, human PDGF-C peptide no. 9 (human)
T2 peptide: Biotin-FPHTYPRNTVLVWRL
Experiment: peptide ELISA, signal to background >3
Procedure: (§2) The indicated peptides where synthesized in an N-terminally biotinylated form and coated onto a neutravidin plate (Thermo Scientific, Cat. 15127) at a concentration of 10 μg/mL. […] Each antibody was tested at least twice, and up to 4 times. A “+” in the table indicate that a signal to background >3 was found and confirmed at least once. The background signal was measured in the absence of peptide using both the primary and the secondary antibodies.

Binder	binding result
B3	binds

Molecular target: T3, human PDGF-C peptide no. 27 (human)
T3 peptide: Biotin-EPGFCIHYNIVMPQF
Experiment: peptide ELISA, signal to background >3
Procedure: as §2

Binder	binding result
B3	binds

Molecular target: T4, human PDGF-C peptide no. 58 (human)
T4 peptide: Biotin-VLQLRPKTGVRGLHK
Experiment: peptide ELISA, signal to background >3
Procedure: as §2

Binder	binding result
B3	binds
B4	binds
B5	binds

Each binder was assayed against T1, Recombinant human PDGF-C from R&D … (assay: SPR (Biacore 3000), antibody amine-coupled to CM5 chip, PDGF-C injected, 1:1 fit).
Procedure: as §1

Binder	Kd
B3	5 nM
B4	2.5 nM
B5	1.5 nM
B6	1.5 nM
B7	1.2 nM

Molecular target: T1, Recombinant human PDGF-C from R&D …
Experiment: cell-based or functional assay
Remark: another data set of the same source

Binder	IC50 value (nM), PathHunter PDGFRα assay
B3	3.36 nM
B4	5.57 nM
B6	7.47 nM
B7	8.38 nM
B8	0.65 nM

Molecular target: T1, Recombinant human PDGF-C from R&D …
Experiment: cell-based or functional assay
Remark: another data set of the same source

Binder	% PDGF-Rα activation by PDGF-C allowed at 1.85 µg/mL antibody (100% = no antibody)
B3	30%
B4	32%
B5	23%
B6	49%
B7	38%
